These results are taken from publication PMC5696618 (Journal of biomolecular screening, 2016).

B1: mouse CNBh domain (residues 552-724) (domain or fragment, UniProt Q60603 552-724, looked up)
chain: TEKVLQICPKDMRADICVHLNRKVFKEHPAFRLASDGCLRALAMEFQTVHCAPGDLIYHAGESVDSLCFVVSGSLEVIQDDEVVAILGKGDVFGDVFWKEATLAQSCANVRALTYCDLHVIKRDALQKVLEFYTAFSHSFSRNLILTYNLRKRIVFRKISDVKREEEERMKRK
B2: mouse EAG1 PAS protein (residues 1-137) (domain or fragment, UniProt Q60603 1-137, looked up)
chain: MTMAGGRRGLVAPQNTFLENIVRRSNDTNFVLGNAQIVDWPIVYSNDGFCKLSGYHRAEVMQKSSACSFMYGELTDKDTVEKVRQTFENYEMNSFEILMYKKNRTPVWFFVKIAPIRNEQDKVVLFLCTFSDITAFK

For data set [1], the target named is hERG PAS domain (Homo sapiens, UniProt Q12809). The data set is described as follows: Thermal shift assay. In kind it is binding. To be noted: for Shift in Tm of hERG PAS protein: dose response, compound solubility issues limited this study. A general note: Block of hERG is tested as a sign of cardiac risk.
Chain of hERG PAS domain (Q12809 1-135): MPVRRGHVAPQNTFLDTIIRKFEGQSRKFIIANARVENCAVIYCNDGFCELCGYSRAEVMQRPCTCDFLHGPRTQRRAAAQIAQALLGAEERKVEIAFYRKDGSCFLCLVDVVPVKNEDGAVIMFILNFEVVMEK
Data set [2] addresses B2. The data set is described as follows: ITC.
Data set [3] deals with B2. Briefly: ITC. The source holds these as a separate data set.
The target in data set [4] is B2. Briefly: ITC. The source holds these as a separate data set. (In general: ITC needs no label: the signal is the heat of the interaction.)
Data set [5] has as its target B1. Briefly: ITC.
The target in data set [6] is B1. The data set is described as follows: ITC. This is another data set of the same source.
The target of data set [7] is B1. The data set is described as follows: ITC. This is another data set of the same source.
The target in data set [8] is B1. The data set is described as follows: fluorescence polarisation.
For data set [9], the target named is B1. Briefly: fluorescence polarisation. The source holds these as a separate data set.
The target of data set [10] is B1. The data set is described as follows: fluorescence polarisation. The source holds these as a separate data set. In general terms: In fluorescence polarisation assays a small probe gives low polarisation when free and higher when bound to something large.
Data set [11] has as its target B1. Briefly: fluorescence polarisation. This is another data set of the same source.
For data set [12], the target named is B1. Briefly: fluorescence polarisation. This is another data set of the same source.

Read-outs that look alike come from different tables or passages of the source.

One may read the stoichiometry N as a count of units in the complex or per binding partner. One may read the Kd as the free concentration of one partner at which half of the binding sites on the other are occupied at equilibrium, for simple one-to-one binding.

On to `CC(C)(c1ccc(O)cc1)c1ccc(O)cc1` [Bisphenol A], for which, in data set [1], the “Shift in Tm of hERG PAS protein” value is “No shift”.
As for `CC(C)(C)c1cc(S)cc(C(C)(C)C)c1O` [ST057196], in data set [1] (on addition of 50 µM of compound), the “Decrease in Tm of hERG PAS protein” value was “more than 18 °C”.
As for `Oc1ccc(C(c2ccc(O)cc2)(C(F)(F)F)C(F)(F)F)cc1` [Bisphenol AF], the “Decrease in Tm of hERG PAS protein” value in data set [1] (human, 200 µM, pH 7.5) was “at least 4.5 °C”.
With `Oc1ccc(Cc2ccc(O)cc2)cc1` [Bisphenol F], the “Shift in Tm of hERG PAS protein” value in data set [1] is listed as “No shift”.
For the molecule B1, the “stoichiometry N” value in [2] was 0.77; in [3] it was 1.2; in data set [4] it was 1.3 ± 0.27.
In the case of B2, the equilibrium dissociation constant (Kd) in [5] amounted to 3300 nM; in data set [6], 1100 nM; in data set [7] it was 2100 ± 800 nM.

B3: fluorescein-labeled mEAG1 PAS (F-PAS) (domain or fragment, mouse, UniProt Q60603 1-137, looked up)
chain: MTMAGGRRGLVAPQNTFLENIVRRSNDTNFVLGNAQIVDWPIVYSNDGFCKLSGYHRAEVMQKSSACSFMYGELTDKDTVEKVRQTFENYEMNSFEILMYKKNRTPVWFFVKIAPIRNEQDKVVLFLCTFSDITAFK
modifications: fluorescein (fluorescein 5-maleimide) on accessible cysteine residues; fluorescein to protein molar ratio typically 3 or 4
Consider B3, for which the Kd in [8] was 3600 ± 1200 nM; in data set [9] it was 2400 ± 670 nM; in data set [10], 1800 ± 560 nM; in [11], 2300 ± 930 nM; in data set [12] it was 3100 ± 1100 nM.
